B1: anti-cKIT antibody 9P3 (antibody, V domains shown)
VH: EVRLVESEGGLVQPRSSMKLSCTASGFTFSDYYMAWVRQVPEKGLEWVANINYDGSSTYYLDSLKSRFIISRDNAKNILYLQMSSLKSEDTATYYCARGDYYGTTYWYFDVWGTGTTVTVSS
VL: DIQMTQTTSSLSASLGDRVTISCRASQDISNYLNWYQQKPDGTVKLLIYYTSRLQSGVPSRFSGSGSGTDYSLTISNLEQEDIATYFCQQGKKLWSFGGGTKLEIKR
notes: Hybridoma-derived mouse variable domains; also called murine 9P3

Assays:
Uke-1 cells = experiment: ADCC activity in vitro (Calcein release, NK3.3 effector cells); format: cell-based; details: effector to target ratio 20 to 1
Description: In brief, Uke-1 cells were stained with Calcein acetoxy-methyl ester (Calcein-AM; Sigma-Aldrich catalog #17783-5MG, St. Louis, Mo.), washed twice, pipetted into a 96-well microtiterplate (96 well, U-bottomed, clear plastic; Corning Costar, catalog #650 160, Tewksbury, Mass.) at a concentration of 5000 cells per well and pre-incubated for 10 min with a serial dilution of the above mentioned antibodies and proteins (from 50,000 to 0.003 μg per ml) before adding the effector NK3.3 cells for 1 hour in an effector to target ratio of 20 to 1. In order to calculate the antibody specific lysis of the target cells, a parallel incubation of target cells only without antibody or effector cells served as a baseline and negative control, whereas the positive control or maximal lysis or hundred percent specific lysis was determined by lysis of target cells only with a 1% Triton-X 100 solution. […] Following a co-incubation of target and effector cells, the microtiterplate was centrifuged and an aliquot of the supernatant fluid was transferred to another microtiterplate (96 well, flat-bottomed, black with clear bottom; (Corning Costar, catalog #3904, Tewksbury, Mass.) and the concentration of free Calcein in solution was determined with a fluorescence counter (Victor 3 ® multilabel counter, Perkin Elmer, Waltham, Mass.).

human cKIT ECD = target: T1, human cKIT ECD (Homo sapiens, UniProt P10721); experiment: SPR (Biacore 2000) affinity measurement; format: binding; details: 25° C.
T1 construct: Human cKIT tr. variant 2, residues 26-520-TAG; made in house; host or cells: HEK293 derived cell lines (293FS), transient transfection
Description: (§1) Affinity of the antibodies to cKIT species orthologues and also to cKIT was determined using SPR technology using a Biacore® 2000 instrument (GE Healthcare, Pittsburgh, Pa.) and with CM5 sensor chips.
(§2) Briefly, HBS-P (0.01 M HEPES, pH 7.4, 0.15 M NaCl, 0.005% Surfactant P20) supplemented with 2% Odyssey® blocking buffer (Li-Cor Biosciences, Lincoln, Nebr.) was used as the running buffer for all the experiments. The immobilization level and analyte interactions were measured by response unit (RU). Pilot experiments were performed to test and confirm the feasibility of the immobilization of the anti-human Fc antibody (Catalog number BR100839, GE Healthcare, Pittsburgh, Pa.) and the capture of the test antibodies.
(§3) For kinetic measurements, the experiments were performed in which the antibodies were captured to the sensor chip surface via the immobilized anti-human Fc antibody and the ability of the cKIT proteins to bind in free solution was determined Briefly, 25 μg/ml of anti-human Fc antibody at pH 5 was immobilized on a CM5 sensor chip through amine coupling at flow rate of 5 μl/minute on all two flow cells to reach 10,500 RUs. 0.1-1 μg/ml of test antibodies were then injected at 10 μl/min for 1 minute. Captured levels of the antibodies were generally kept below 200 RUs. Subsequently, 3.125-50 nM of cKIT receptor extracellular domains (ECD) were diluted in a 2-fold series and injected at a flow rate of 40 μl/min for 3 min over both reference and test flow cells. Table of tested ECDs is listed below. Dissociation of the binding was followed for 10 min. After each injection cycle, the chip surface was regenerated with 3 M MgCl2 at 10 μl/min for 30 s.

mouse cKIT ECD = experiment: SPR (Biacore 2000) affinity measurement; format: binding; details: 25° C.
Description: as §1, §2, §3

SCF binding to cKIT = SCF binding to cKIT (Homo sapiens, UniProt P10721); experiment: Competition assays (ELISA and FACS) of SCF binding to cKIT
[1] = target: T2, Rat cKIT D1-5 (residues 25-526, C-terminal mFc) (rat); experiment: SPR (Biacore 2000), antibody captured on anti-human Fc
T2 construct: The entry includes the linker and mouse Fc tag; also called rat cKIT-mFc
T2 chain: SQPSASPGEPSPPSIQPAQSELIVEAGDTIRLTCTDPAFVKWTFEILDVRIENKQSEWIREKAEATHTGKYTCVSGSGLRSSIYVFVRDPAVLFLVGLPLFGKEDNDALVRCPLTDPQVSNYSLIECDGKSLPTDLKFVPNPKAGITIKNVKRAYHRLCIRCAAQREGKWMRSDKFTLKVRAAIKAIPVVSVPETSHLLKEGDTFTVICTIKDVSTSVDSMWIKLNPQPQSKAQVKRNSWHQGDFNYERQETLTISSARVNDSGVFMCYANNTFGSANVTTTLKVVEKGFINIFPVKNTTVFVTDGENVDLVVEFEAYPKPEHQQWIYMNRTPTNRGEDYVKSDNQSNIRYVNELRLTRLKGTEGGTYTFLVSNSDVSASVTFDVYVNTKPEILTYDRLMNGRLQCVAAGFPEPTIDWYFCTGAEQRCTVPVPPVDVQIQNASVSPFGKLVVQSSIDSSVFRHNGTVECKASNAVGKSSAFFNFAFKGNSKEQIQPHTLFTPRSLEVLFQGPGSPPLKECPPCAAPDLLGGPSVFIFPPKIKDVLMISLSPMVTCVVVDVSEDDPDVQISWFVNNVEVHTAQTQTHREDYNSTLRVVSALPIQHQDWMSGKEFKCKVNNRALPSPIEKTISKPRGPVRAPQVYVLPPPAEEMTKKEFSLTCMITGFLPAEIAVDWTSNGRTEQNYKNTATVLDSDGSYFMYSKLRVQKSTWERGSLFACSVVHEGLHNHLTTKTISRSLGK

[2] = target: T3, Mouse cKIT ECD, C-terminal 6x His (Sino Biological Inc, catalog number 50530-M08H) (mouse, UniProt P05532 25-527); experiment: as above
T3 construct: extracellular domain; Bought protein
T3 sequence (looked up): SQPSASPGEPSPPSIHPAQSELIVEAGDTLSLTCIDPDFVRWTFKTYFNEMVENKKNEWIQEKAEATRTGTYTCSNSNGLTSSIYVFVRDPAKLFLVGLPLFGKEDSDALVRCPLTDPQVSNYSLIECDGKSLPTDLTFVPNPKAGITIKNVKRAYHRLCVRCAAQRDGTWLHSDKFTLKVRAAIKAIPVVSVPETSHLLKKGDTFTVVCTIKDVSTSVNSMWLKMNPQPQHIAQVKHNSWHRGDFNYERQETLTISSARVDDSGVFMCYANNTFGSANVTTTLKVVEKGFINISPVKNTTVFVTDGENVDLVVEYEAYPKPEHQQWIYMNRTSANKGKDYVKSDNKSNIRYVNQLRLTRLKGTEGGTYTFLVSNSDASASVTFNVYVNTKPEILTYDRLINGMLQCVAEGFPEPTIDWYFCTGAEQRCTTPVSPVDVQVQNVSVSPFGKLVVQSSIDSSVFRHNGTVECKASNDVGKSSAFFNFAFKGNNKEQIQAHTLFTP

[3] = tested on: GIST T1 subcutaneous tumor xenograft; details: Example 28, single i.v. dose: 9P3 10 mg/kg, IgG1-MCC-DM1 5 mg/kg, IgG1-SPDB-DM4 10 mg/kg, 9P3-MCC-DM1 5 and 10 mg/kg, 9P3-SPDB-DM4 2.5 and 5 mg/kg
Description: The anti-tumor activity of anti-cKIT ADCs was evaluated in several tumor xenograft models.

[4] = target: T4, Human cKIT D1-5 (human cKIT tr. variant 2, residues 26-520, C-terminal His tag) (human, UniProt P10721 26-524); experiment: SPR (Biacore 2000), antibody captured on anti-human Fc, cKIT ECD as analyte, 25 C, 1:1 fit
T4 construct: also called human cKIT ECD; Human c-Kit ECD
T4 sequence (P10721 other isoform, or with tags, fused parts or gaps mutant limits assumed): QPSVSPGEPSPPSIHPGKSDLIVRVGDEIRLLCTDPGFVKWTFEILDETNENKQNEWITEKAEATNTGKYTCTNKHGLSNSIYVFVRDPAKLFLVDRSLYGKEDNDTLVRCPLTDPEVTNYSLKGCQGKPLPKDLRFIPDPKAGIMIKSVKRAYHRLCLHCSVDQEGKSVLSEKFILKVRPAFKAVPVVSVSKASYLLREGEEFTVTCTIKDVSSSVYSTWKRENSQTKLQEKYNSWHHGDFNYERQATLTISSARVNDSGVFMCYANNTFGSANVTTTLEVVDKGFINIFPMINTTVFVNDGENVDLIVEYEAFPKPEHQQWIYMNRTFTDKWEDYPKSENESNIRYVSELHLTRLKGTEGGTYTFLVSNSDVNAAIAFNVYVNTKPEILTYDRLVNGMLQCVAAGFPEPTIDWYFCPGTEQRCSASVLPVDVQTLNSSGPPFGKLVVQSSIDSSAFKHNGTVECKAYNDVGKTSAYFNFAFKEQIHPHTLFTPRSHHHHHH

T1 sequence (P10721 with tags, fused parts or gaps isoform P10721-2): as the sequence (P10721 other isoform, or with tags, fused parts or gaps mutant limits assumed) above
Chain of SCF binding to cKIT (P10721 26-524 limits assumed): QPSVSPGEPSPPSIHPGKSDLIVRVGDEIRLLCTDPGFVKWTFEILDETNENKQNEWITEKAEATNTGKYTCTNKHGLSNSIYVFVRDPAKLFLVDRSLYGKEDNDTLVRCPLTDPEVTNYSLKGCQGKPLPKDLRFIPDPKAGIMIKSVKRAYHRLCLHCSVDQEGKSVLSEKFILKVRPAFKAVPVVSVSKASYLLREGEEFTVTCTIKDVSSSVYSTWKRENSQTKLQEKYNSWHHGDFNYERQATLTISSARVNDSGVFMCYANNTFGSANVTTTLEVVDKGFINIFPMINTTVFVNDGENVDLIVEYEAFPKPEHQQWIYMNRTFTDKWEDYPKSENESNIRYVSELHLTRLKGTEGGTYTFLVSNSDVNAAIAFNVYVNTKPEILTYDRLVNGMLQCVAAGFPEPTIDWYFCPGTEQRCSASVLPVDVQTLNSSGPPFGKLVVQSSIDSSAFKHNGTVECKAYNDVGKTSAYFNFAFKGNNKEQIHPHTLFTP

Molecule | ADCC killing of target cells (Uke-1 cells) | Affinity human cKIT (nM) (human cKIT ECD) | Affinity mouse cKIT (nM) (mouse cKIT ECD) | blocking of SCF binding to cKIT (SCF binding to cKIT) | binding result [1] | binding result [2] | anti-tumor activity (tumor volume) [3] | Kd [4]
MabCampath [reference compound] | mediated ADCC killing of the target cells |  |  |  |  |  |  | 
B1 |  | nanomolar level | Not reactive | partial blocking of SCF binding to cKIT | no binding (tested: 3.125-50 nM of cKIT ECD injected) | no binding (tested: 3.125-50 nM of cKIT ECD injected) | Neither the control non-specific IgG1 ADCs nor the unconjugated 9P3 were efficacious | 20 nM

— patent US20150320880A1, “ANTIBODY DRUG CONJUGATES” (NOVARTIS AG, priority 2013, published 2015)
